This is an account of results in patent US20170158755A1 (PROTHENA BIOSCIENCES, published 2017).

Where a chain is given by its changes, count along the chain named.

Assay [1] deals with T1, mouse LAMA4 in mouse tissue (mouse, UniProt P97927 25-1816).
T1 construct: Native protein in tissue sections, there part of laminin trimers; also called LAMA4-positive mouse tissue; LAMA4-positive mouse brain vasculature
As to the kind of experiment: staining of WT versus LAMA4.KO mouse brain cryosections, anti-human-594 secondary. From the text:
The specific binding between the 19C12 humanized variants (19C12 chi, H2L3, H2L4, H2L6, H3L6 and isotype control) and LAMA4 was further tested by assessing the variants' ability to stain wild-type vs. LAMA4.KO mouse brains. Humanized monoclonal antibodies against LAMA4 were generated as described in the Materials and Methods. Perfused and fresh frozen WT and LAMA4.KO mouse brains were cryosectioned, acetone-fixed, and stained with LAMA4 primary antibody followed by anti-human-594 secondary antibodies.

Assay [2] deals with T2, human LAMA4 G domain (LG1-5) displayed on 293 cells (human, UniProt Q16363 830-1821).
T2 construct: the vector's tags and membrane anchor are not written here; also called LAMA4-displaying human 293 cells; full length
T2 sequence: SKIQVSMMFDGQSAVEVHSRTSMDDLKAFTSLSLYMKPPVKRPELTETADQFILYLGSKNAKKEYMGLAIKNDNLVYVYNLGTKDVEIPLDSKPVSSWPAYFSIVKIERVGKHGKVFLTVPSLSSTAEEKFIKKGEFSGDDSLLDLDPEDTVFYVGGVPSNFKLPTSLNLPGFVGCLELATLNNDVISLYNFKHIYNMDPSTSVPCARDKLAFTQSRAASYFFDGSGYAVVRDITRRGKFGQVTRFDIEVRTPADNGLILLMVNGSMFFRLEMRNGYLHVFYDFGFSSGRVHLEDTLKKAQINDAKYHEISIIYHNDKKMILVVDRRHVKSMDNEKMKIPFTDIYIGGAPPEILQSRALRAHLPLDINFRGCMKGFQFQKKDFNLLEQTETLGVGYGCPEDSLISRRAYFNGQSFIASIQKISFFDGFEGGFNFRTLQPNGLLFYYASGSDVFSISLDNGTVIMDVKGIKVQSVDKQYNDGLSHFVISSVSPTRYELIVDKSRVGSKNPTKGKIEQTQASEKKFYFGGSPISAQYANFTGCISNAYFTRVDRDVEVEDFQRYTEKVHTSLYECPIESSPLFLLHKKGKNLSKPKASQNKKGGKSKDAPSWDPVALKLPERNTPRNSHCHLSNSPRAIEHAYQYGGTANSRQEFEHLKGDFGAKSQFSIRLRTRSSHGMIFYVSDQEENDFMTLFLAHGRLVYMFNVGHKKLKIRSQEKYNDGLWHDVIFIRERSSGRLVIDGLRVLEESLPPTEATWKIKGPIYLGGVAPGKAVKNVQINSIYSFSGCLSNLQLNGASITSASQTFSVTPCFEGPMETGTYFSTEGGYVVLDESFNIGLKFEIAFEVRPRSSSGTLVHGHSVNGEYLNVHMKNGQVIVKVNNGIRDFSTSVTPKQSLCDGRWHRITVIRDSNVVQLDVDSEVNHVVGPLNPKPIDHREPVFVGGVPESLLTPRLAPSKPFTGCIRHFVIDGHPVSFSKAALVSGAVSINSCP
As to the kind of experiment: flow cytometry on LAMA4-displaying 293 cells, anti-human-650 secondary antibody; MFI. As to the method: (§1) The 19C12 variants chimeric 19C12, H2L3, H2L4, H2L6, H3L6, and isotype control were tested for their ability to block the binding of LAMA4 to its ligand MCAM (FIG. 15) and to bind LAMA4-displaying cells (FIG. 16). To test LAMA4 binding capacity, serially diluted antibodies were pre-incubated with LAMA4-displaying human 293 cells, followed by anti-human-650 secondary antibody incubation. […] Fluorescent signal was assessed via flow cytometric analyses and plotted as mean fluorescence intensity (MFI). All 19C12 variants retained their MCAM blocking and LAMA4 binding activity when compared with chimeric 19C12.

Another assay addresses T3, recombinant laminin 411 (human, UniProt P07942 22-1786; P11047 34-1609, limits assumed).
T3 construct: also called LAMA4 in complex with its gamma1 and beta1 chains
Put plainly: flow cytometric blocking assay; antibody pre-incubated with 650-labeled laminin 411; blocked partner: human MCAM on CHO cells; MFI. How it is done: as §1
Following two washes with FACS buffer (1% FBS in PBS), cells were resuspended with 650-conjugated anti-pan-laminin antibody (1:1000; Novus Biologicals) and incubated for 20 min at 4° C., and washed again. Cells were analyzed for pan-laminin reactivity by flow cytometry using standard procedures.
(In general: Flow cytometry measures light scatter and fluorescence of single cells or particles in a stream.)

Another assay addresses T4, human His-laminin-α4 (human, UniProt Q16363 833-1823, limits assumed).
T4 construct: Bought His-tagged recombinant protein (R & D Systems); also called Human LAMA4; human His-laminin-α4 (R & D Systems)
T4 sequence: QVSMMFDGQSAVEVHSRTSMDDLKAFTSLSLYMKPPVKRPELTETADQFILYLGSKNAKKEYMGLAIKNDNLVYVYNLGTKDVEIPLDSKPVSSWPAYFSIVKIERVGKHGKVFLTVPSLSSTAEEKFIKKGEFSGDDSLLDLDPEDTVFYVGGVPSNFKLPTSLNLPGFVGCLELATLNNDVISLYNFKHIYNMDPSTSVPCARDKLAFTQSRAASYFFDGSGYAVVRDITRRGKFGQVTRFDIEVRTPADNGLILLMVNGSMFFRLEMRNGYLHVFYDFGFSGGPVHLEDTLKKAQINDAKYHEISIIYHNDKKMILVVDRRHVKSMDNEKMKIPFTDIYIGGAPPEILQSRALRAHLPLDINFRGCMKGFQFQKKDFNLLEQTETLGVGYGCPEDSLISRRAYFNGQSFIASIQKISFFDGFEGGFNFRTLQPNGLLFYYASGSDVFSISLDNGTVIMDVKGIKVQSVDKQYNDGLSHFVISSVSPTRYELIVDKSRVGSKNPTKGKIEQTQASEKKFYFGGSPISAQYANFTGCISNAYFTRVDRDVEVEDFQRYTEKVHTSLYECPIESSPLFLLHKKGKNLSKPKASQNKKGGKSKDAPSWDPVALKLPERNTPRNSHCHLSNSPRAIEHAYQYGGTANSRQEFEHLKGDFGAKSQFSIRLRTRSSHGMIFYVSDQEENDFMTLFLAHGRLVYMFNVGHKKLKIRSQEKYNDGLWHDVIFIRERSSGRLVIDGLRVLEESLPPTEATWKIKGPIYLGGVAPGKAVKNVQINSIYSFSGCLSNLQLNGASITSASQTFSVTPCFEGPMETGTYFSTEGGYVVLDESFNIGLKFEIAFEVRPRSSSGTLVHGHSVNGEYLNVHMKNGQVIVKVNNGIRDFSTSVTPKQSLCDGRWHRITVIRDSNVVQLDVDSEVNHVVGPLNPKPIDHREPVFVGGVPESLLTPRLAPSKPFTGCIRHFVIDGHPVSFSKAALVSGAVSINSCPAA
Put plainly: Biacore SPR.

In another assay the target is T5, mouse His-laminin-α4 (mouse, UniProt P97927 826-1816, limits assumed).
T5 construct: Bought His-tagged recombinant protein; also called Murine LAMA4; recombinant mouse LAMA4-His
T5 sequence (looked up): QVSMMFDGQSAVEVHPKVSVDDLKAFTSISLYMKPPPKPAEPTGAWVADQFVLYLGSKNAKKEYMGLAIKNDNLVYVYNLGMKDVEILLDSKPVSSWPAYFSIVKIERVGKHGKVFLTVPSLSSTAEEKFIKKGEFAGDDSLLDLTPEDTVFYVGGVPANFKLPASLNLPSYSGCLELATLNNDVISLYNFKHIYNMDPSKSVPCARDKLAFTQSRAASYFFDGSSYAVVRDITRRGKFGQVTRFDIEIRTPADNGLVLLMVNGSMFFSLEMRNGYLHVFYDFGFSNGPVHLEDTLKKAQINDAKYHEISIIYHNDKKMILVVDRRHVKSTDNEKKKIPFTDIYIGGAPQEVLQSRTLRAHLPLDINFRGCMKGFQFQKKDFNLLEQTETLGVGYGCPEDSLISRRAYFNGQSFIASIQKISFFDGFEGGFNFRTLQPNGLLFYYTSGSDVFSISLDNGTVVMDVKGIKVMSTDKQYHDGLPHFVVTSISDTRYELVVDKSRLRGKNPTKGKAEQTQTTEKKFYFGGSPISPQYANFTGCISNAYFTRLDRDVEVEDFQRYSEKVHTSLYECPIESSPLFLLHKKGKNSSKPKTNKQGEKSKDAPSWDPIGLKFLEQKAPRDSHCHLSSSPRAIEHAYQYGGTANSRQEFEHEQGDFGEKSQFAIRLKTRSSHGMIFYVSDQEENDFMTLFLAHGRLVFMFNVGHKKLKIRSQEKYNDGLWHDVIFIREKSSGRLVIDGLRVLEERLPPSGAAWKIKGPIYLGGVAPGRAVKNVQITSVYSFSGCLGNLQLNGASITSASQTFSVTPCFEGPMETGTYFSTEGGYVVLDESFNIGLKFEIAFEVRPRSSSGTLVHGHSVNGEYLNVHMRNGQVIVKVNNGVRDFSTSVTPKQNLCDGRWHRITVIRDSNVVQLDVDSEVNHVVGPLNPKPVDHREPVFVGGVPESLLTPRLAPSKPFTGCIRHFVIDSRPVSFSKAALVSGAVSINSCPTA
As to the kind of experiment: Biacore SPR.

The target of assay [3] is T6, LGde2, human LAMA4 G domain with LG2 deleted, displayed on 293 cells (human, UniProt Q16363 830-1821, limits assumed).
T6 construct: pDisplay construct on 293 cells; vector tags and anchor not written here; also called LGde2 (LG13)
T6 sequence: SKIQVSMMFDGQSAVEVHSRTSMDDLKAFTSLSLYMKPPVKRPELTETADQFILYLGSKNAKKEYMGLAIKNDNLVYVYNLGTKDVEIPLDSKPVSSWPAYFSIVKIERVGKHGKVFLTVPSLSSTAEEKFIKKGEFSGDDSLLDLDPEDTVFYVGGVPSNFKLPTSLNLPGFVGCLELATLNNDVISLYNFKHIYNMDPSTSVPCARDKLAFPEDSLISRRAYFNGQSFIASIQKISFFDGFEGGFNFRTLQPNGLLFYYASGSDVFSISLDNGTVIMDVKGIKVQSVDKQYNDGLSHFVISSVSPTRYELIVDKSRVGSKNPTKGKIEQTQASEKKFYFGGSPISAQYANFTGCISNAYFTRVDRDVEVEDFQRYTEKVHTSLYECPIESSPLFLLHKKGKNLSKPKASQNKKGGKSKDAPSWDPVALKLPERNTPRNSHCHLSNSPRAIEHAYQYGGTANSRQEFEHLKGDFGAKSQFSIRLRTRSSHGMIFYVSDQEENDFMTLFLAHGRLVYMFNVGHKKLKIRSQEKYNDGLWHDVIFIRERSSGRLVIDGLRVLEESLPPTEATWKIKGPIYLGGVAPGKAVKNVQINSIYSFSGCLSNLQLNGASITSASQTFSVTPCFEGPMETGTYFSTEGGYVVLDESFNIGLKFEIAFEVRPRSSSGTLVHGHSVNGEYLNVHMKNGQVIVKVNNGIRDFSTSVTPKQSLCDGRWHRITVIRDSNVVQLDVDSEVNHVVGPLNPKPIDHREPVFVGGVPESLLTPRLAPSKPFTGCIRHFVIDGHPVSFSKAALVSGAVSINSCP
Put plainly: flow cytometry on 293 cells displaying LAMA4 G-domain variants; % binding. An excerpt: LGde1 has a full-length G domain (i.e., LG1-5) with LG1 deleted, LGde2 has a full-length G domain with LG2 deleted, and LGde3 has a full-length G domain with LG3 deleted. Recombinant MCAM-Fc protein was able to specifically bind 293 cells expressing LAMA4 variants LG1-5, LG1-3, and LGde 1 (LG23), but not 293 cells expressing LAMA 4 variants LG4-5, LGde2 (LG13), or LGde3 (LG12).

T3 sequence (chain, as listed by the source limits assumed, chain 1 of 3): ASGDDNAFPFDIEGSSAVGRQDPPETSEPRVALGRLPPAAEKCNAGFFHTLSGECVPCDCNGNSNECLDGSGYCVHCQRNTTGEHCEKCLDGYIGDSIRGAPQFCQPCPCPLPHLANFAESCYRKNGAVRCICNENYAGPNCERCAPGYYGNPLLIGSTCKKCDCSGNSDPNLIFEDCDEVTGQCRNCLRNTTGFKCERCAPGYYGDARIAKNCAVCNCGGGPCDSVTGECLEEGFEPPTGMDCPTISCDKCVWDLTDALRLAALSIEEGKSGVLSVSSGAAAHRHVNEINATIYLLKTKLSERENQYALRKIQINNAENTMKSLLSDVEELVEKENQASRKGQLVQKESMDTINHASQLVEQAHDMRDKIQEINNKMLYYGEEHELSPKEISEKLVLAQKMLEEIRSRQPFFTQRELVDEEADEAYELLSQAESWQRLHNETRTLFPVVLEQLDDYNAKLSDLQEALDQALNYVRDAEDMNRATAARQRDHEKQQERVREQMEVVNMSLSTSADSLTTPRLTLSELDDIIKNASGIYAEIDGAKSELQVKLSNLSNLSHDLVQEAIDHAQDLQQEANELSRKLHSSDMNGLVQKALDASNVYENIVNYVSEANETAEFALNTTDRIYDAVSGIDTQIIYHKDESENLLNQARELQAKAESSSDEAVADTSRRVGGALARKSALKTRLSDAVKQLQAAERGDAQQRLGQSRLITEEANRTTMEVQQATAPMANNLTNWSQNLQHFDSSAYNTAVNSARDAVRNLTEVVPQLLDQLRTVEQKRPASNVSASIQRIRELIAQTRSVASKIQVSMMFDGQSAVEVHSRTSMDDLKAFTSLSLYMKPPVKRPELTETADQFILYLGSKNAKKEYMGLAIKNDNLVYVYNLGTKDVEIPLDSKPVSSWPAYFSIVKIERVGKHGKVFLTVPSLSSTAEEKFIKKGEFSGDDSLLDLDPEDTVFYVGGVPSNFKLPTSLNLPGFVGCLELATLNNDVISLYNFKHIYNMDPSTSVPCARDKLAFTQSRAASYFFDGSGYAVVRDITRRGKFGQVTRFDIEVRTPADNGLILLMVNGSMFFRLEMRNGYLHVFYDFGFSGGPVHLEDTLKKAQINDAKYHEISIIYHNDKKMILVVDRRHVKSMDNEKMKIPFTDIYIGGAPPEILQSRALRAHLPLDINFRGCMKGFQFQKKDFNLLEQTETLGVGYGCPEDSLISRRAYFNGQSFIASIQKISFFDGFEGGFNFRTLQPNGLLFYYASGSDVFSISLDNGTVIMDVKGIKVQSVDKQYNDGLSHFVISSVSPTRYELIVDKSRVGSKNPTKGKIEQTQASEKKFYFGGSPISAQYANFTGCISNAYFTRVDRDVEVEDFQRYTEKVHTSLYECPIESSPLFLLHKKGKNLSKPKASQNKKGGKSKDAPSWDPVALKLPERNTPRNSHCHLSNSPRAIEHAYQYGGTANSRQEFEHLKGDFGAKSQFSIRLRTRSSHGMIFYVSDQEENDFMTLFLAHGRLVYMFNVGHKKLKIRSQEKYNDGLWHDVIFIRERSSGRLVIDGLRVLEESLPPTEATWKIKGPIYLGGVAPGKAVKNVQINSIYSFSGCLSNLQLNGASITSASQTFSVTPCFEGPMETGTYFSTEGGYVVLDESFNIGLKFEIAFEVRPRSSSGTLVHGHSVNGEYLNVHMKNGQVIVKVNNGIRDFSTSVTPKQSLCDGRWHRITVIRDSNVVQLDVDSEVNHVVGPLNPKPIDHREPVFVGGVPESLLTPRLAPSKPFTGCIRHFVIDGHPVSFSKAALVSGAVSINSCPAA
T3 sequence (P07942 22-1786 limits assumed, chain 2 of 3): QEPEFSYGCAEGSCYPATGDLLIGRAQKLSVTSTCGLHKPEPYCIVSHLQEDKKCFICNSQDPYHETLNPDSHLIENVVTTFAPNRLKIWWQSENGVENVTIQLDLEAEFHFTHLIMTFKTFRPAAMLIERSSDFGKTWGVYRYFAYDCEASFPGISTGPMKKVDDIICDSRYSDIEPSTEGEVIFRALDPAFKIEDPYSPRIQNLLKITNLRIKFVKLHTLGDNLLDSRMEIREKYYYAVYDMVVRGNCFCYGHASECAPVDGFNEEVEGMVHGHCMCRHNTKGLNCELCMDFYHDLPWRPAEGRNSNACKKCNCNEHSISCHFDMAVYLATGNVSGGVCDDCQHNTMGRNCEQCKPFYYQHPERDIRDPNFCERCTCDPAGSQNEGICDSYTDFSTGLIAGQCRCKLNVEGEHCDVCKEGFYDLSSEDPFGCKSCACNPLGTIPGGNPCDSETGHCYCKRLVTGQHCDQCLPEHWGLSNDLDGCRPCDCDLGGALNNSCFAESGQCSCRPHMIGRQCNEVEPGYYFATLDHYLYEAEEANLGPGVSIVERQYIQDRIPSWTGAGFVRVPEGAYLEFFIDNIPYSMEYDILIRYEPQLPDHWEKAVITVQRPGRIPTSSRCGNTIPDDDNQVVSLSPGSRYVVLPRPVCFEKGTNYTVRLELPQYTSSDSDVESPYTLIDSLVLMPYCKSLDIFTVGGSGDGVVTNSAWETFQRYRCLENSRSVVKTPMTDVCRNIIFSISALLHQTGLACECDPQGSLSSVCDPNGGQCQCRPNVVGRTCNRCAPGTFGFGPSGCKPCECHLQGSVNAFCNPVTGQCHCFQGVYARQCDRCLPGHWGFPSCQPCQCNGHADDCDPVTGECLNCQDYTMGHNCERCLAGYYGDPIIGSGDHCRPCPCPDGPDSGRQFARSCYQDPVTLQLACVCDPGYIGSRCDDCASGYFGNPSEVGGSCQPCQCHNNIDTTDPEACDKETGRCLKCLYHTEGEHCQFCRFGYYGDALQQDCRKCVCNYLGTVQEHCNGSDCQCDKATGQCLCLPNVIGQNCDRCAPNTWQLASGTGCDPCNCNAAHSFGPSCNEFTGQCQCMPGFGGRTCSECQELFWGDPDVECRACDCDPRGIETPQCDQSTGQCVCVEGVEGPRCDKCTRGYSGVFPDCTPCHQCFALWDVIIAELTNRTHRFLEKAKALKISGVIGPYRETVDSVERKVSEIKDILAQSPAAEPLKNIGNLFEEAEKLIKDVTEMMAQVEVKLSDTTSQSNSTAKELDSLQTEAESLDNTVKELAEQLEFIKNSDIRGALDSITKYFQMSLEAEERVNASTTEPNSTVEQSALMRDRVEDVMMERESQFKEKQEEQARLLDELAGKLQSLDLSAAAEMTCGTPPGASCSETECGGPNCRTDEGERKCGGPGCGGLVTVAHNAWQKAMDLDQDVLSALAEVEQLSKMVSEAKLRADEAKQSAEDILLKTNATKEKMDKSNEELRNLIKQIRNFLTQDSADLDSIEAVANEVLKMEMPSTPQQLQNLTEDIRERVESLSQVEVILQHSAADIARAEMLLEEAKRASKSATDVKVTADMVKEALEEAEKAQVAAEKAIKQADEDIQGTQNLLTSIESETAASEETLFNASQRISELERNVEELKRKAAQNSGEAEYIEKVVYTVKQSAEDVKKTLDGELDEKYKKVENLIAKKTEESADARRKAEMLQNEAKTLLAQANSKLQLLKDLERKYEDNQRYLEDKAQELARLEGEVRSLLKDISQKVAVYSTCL
T3 sequence (P11047 34-1609 limits assumed, chain 3 of 3): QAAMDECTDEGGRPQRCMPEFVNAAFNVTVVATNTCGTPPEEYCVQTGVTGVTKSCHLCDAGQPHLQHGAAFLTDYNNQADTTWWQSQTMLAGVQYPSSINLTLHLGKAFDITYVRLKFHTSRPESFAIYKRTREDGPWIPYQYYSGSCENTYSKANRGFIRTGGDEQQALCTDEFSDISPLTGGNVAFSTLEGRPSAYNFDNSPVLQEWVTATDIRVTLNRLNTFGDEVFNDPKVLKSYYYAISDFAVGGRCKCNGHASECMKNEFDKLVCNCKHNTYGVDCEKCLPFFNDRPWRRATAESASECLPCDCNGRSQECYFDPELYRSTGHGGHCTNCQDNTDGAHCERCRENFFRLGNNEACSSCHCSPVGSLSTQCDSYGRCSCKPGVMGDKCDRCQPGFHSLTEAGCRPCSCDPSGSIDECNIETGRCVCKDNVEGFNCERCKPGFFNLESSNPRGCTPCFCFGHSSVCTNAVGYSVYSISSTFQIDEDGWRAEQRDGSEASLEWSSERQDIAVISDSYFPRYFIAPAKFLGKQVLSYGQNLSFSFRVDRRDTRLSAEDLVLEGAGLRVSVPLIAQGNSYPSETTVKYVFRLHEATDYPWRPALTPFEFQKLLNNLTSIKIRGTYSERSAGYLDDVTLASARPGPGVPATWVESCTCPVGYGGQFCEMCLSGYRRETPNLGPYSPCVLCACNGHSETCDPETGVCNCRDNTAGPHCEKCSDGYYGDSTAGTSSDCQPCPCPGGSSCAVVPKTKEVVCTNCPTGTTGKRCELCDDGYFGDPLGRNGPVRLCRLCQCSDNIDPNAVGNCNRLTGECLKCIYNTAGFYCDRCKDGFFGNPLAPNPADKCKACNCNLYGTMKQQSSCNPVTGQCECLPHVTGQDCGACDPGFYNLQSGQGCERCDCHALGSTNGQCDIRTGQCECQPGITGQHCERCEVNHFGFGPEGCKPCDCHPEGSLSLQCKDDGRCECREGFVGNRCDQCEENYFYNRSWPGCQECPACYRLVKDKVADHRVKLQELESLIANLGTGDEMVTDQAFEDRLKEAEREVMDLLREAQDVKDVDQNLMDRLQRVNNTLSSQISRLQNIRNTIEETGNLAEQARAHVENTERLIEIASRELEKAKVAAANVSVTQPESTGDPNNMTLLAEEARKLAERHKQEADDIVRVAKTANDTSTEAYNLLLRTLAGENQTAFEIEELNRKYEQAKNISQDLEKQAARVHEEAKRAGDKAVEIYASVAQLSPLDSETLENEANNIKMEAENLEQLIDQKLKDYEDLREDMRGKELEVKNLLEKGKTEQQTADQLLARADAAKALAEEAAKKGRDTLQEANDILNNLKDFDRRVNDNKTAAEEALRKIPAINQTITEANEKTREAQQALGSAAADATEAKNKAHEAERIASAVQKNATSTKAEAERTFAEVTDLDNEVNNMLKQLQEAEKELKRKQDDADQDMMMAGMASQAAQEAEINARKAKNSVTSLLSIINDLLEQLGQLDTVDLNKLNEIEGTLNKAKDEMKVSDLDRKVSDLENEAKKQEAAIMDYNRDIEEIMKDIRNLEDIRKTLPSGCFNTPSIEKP

B1: humanized 19C12 antibody H2L3 (antibody, V domains shown)
VH: QVQLQQSGAELVKPGASVKVSCKASGYAFSTYWMNWVRQAPGQGLEWIGQIYPGDGDTNYNGKFKGRVTITADKSTSTAYMELSSLRSEDTAVYFCARSDGYYDYWGQGTTVTVSS
VL: NIVLTQSPASLAVSLGERATISCRASESVDSYGTSFMHWYQQKPGQPPKLLICLASSLESGVPARFSGSGSRTDFTLTIDPVEAEDAATYYCQQNNEDPPTFGAGTKLEIKR
notes: Intact humanized IgG (human Fc); also called VHv2/VLv3; Hu19C12 H2L3
Consider B1, for which the binding result (in assay [1]; in assay [2]; in the assay with recombinant laminin 411) was “binds” in each case.

B2: humanized 19C12 antibody H2L4 (antibody, V domains shown)
VH: B1 VH
VL: B1 VL with C53S, R72G, D80S
notes: Intact humanized IgG (human Fc); also called VHv2/VLv4
Turning to B2, the binding result (in assay [1]; in assay [2]; with recombinant laminin 411) was “binds” each time.

B3: humanized 19C12 antibody H2L6 (antibody, V domains shown)
VH: B1 VH
VL: B1 VL with N1D, C53S, R72G, D80S
notes: Intact humanized IgG (human Fc); also called VHv2/VLv6
Take B3: the binding result (in assay [1]; in assay [2]; with recombinant laminin 411) was “binds” each time.

B4: humanized 19C12 antibody H3L6 (antibody, V domains shown)
VH: B1 VH with Q1E
VL: B1 VL with N1D, C53S, R72G, D80S
notes: Intact humanized IgG (human Fc); also called VHv3/VLv6
As for B4, the binding result (in assay [1]; in assay [2]; with recombinant laminin 411) was “binds” in each case.

B5: mouse monoclonal antibody 5B5 (antibody, V domains shown)
VH: QVQLQQPGAELVKPGASVKLSCKASGYTFTSYWMHWVKQRPGRGLEWIGRIDPNSGGTKHNEKFKSKATLTVDKPSSTAYMQLSSLTSEDSAVYYCAGSPSYYDYALHYAMDYWGQGTSVTVSS
VL: not shown
As to B5, in the assay with human His-laminin-α4, binding was put at a Kd of 7.33 nM; the koff (in general, a measure of how fast the partners let go of each other) is 0.0105 s⁻¹; the kon (commonly a measure of how fast the partners come together) was found to be 1.43e+06 M⁻¹ s⁻¹. In the assay with mouse His-laminin-α4, the Kd – broadly, the constant that tells how readily two partners part at equilibrium – was determined as 5.27 nM; the koff came out at 0.0116 s⁻¹; the kon stood at 2.2e+06 M⁻¹ s⁻¹. Moreover, the binding result in assay [3] is listed as “no binding”.
